T1: PUF4 RNA-binding domain (Saccharomyces cerevisiae, UniProt P25339 537-888)
T1 sequence: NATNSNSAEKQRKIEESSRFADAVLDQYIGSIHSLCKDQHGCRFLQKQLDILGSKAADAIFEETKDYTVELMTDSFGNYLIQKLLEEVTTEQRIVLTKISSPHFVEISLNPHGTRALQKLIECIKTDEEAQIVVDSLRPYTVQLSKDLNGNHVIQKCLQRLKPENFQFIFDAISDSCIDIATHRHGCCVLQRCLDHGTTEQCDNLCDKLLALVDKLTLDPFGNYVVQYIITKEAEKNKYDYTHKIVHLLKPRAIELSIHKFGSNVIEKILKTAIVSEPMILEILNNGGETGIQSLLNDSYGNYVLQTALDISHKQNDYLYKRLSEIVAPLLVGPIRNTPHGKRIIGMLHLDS


Biological target: T1, PUF4 RNA-binding domain
Test: Mg; RNA-MaP; 20 mM Na-HEPES pH 7.4, 30 mM KOAc, 0.75 mM MgCl2, 0.1% Tween-20, 5% glycerol, 0.1 mg/mL BSA, 2 mM DTT; 25 C; 0.0125-409.6 nM protein
Details: tags: N-His6-TEV cleaved; C-SNAP kept, Cy3B-labelled; label: tethered on chip by stalled RNA polymerase

Binder	Kd
Ic_S2_P5E.1_K5.1_C5.1_H5.1_A5.1_[T5C]_[A7T]_F5.1_[T8C]_[T9C]_[A10C]_T5.1 (ssRNA) RNA: UUUGAUUAAUAUGAUAUCGUUCUUUCUUGUACUUCCCUUCUUUCUCGAUAUCAUAUUAAUCUUU	0.149 µM
Ic_S2_P5E.1_K5.1_C5.1_H5.1_A5.1_[T5C]_[T6A]_[A7T]_F5.1_[T8C]_[T9G]_[A10G]_T5.1 (ssRNA) RNA: UUUGAUUAAUAUGAUAUCGUUCUUUCUUGUACAUCGGUUCUUUCUCGAUAUCAUAUUAAUCUUU	0.315 µM
Ic_S2_P5E.1_K5.1_C5.1_H5.1_A5.1_[T5C]_F5.1_[T8A]_[T9C]_[A10C]_T5.1 (ssRNA) RNA: UUUGAUUAAUAUGAUAUCGUUCUUUCUUGUACUAACCUUCUUUCUCGAUAUCAUAUUAAUCUUU	0.228 µM
Ic_S2_P5E.1_K5.1_C5.1_H5.1_A5.1_[T5G]_[T6C]_[A7C]_F5.1_[T8C]_[T9A]_[A10T]_T5.1 (ssRNA) RNA: UUUGAUUAAUAUGAUAUCGUUCUUUCUUGUAGCCCAUUUCUUUCUCGAUAUCAUAUUAAUCUUU	0.819 µM
Ic_S2_P5E.1_K5.1_C5.1_H5.1_A5.1_[T6A]_[A7T]_F5.1_[T8C]_[T9C]_[A10T]_T5.1 (ssRNA) RNA: UUUGAUUAAUAUGAUAUCGUUCUUUCUUGUAUAUCCUUUCUUUCUCGAUAUCAUAUUAAUCUUU	0.0103 µM
Ic_S2_P5E.1_K5.1_C5.1_H5.1_A5.1_[T6C]_[A7T]_F5.1_[T8A]_[T9C]_[A10G]_T5.1 (ssRNA) RNA: UUUGAUUAAUAUGAUAUCGUUCUUUCUUGUAUCUACGUUCUUUCUCGAUAUCAUAUUAAUCUUU	0.0261 µM
Ic_S2_P5E.1_K5.1_C5.1_H5.1_A5.1_[T5G]_[A7T]_F5.1_[T8C]_[A10T]_T5.1 (ssRNA) RNA: UUUGAUUAAUAUGAUAUCGUUCUUUCUUGUAGUUCUUUUCUUUCUCGAUAUCAUAUUAAUCUUU	0.126 µM
Ic_S2_P5E.1_K5.1_C5.1_H5.1_A5.1_[T5A]_F5.1_[T8C]_[T9G]_[A10C]_T5.1 (ssRNA) RNA: UUUGAUUAAUAUGAUAUCGUUCUUUCUUGUAAUACGCUUCUUUCUCGAUAUCAUAUUAAUCUUU	1.05 µM
Ic_S2_P5E.1_K5.1_C5.1_H5.1_A5.1_[T5A]_[T6A]_[A7T]_F5.1_[T8A]_[T9C]_[A10G]_T5.1 (ssRNA) RNA: UUUGAUUAAUAUGAUAUCGUUCUUUCUUGUAAAUACGUUCUUUCUCGAUAUCAUAUUAAUCUUU	0.052 µM
Ic_S2_P5E.1_K5.1_C5.1_H5.1_A5.1_[T6C]_F5.1_[T8G]_[T9C]_[A10C]_T5.1 (ssRNA) RNA: UUUGAUUAAUAUGAUAUCGUUCUUUCUUGUAUCAGCCUUCUUUCUCGAUAUCAUAUUAAUCUUU	0.389 µM
Ic_S2_P5E.1_K5.1_C5.1_H5.1_A5.1_[T6A]_[A7T]_F5.1_[T8C]_[T9G]_[A10G]_T5.1 (ssRNA) RNA: UUUGAUUAAUAUGAUAUCGUUCUUUCUUGUAUAUCGGUUCUUUCUCGAUAUCAUAUUAAUCUUU	0.0491 µM
Ic_S2_P5E.1_K5.1_C5.1_H5.1_A5.1_[T6G]_[A7T]_F5.1_[T8A]_[T9A]_T5.1 (ssRNA) RNA: UUUGAUUAAUAUGAUAUCGUUCUUUCUUGUAUGUAAAUUCUUUCUCGAUAUCAUAUUAAUCUUU	0.0537 µM
Ic_S2_P5E.1_K5.1_C5.1_H5.1_A5.1_[T5A]_[T6A]_[A7T]_F5.1_[T9A]_T5.1 (ssRNA) RNA: UUUGAUUAAUAUGAUAUCGUUCUUUCUUGUAAAUUAAUUCUUUCUCGAUAUCAUAUUAAUCUUU	0.00221 µM
Ic_S2_P5E.1_K5.1_C5.1_H5.1_A5.1_[T5A]_[T6C]_[A7T]_F5.1_[T8A]_[T9A]_T5.1 (ssRNA) RNA: UUUGAUUAAUAUGAUAUCGUUCUUUCUUGUAACUAAAUUCUUUCUCGAUAUCAUAUUAAUCUUU	0.129 µM
Ic_S2_P5E.1_K5.1_C5.1_H5.1_A5.1_[T5G]_[A7C]_F5.1_[T9C]_[A10G]_T5.1 (ssRNA) RNA: UUUGAUUAAUAUGAUAUCGUUCUUUCUUGUAGUCUCGUUCUUUCUCGAUAUCAUAUUAAUCUUU	0.706 µM
Ic_S2_P5E.1_K5.1_C5.1_H5.1_A5.1_[T5C]_[A7C]_F5.1_[T9C]_[A10T]_T5.1 (ssRNA) RNA: UUUGAUUAAUAUGAUAUCGUUCUUUCUUGUACUCUCUUUCUUUCUCGAUAUCAUAUUAAUCUUU	0.0135 µM
Ic_S2_P5E.1_K5.1_C5.1_H5.1_A5.1_[T6A]_[A7C]_F5.1_[T8C]_[T9G]_[A10G]_T5.1 (ssRNA) RNA: UUUGAUUAAUAUGAUAUCGUUCUUUCUUGUAUACCGGUUCUUUCUCGAUAUCAUAUUAAUCUUU	0.082 µM
Ic_S2_P5E.1_K5.1_C5.1_H5.1_A5.1_[T5C]_[T6G]_[A7C]_F5.1_[T8C]_[T9C]_T5.1 (ssRNA) RNA: UUUGAUUAAUAUGAUAUCGUUCUUUCUUGUACGCCCAUUCUUUCUCGAUAUCAUAUUAAUCUUU	0.558 µM
Ic_S2_P5E.1_K5.1_C5.1_H5.1_A5.1_[T6G]_[A7T]_F5.1_[T8C]_[T9A]_[A10T]_T5.1 (ssRNA) RNA: UUUGAUUAAUAUGAUAUCGUUCUUUCUUGUAUGUCAUUUCUUUCUCGAUAUCAUAUUAAUCUUU	0.064 µM
Ic_S2_P5E.1_K5.1_C5.1_H5.1_A5.1_[T6G]_[A7G]_F5.1_[T8C]_[A10C]_T5.1 (ssRNA) RNA: UUUGAUUAAUAUGAUAUCGUUCUUUCUUGUAUGGCUCUUCUUUCUCGAUAUCAUAUUAAUCUUU	0.543 µM
Ic_S2_P5E.1_K5.1_C5.1_H5.1_A5.1_[T5G]_F5.1_[T8A]_[A10T]_T5.1 (ssRNA) RNA: UUUGAUUAAUAUGAUAUCGUUCUUUCUUGUAGUAAUUUUCUUUCUCGAUAUCAUAUUAAUCUUU	0.342 µM
Ic_S2_P5E.1_K5.1_C5.1_H5.1_A5.1_[T5A]_[T6A]_F5.1_[T8C]_[T9A]_[A10C]_T5.1 (ssRNA) RNA: UUUGAUUAAUAUGAUAUCGUUCUUUCUUGUAAAACACUUCUUUCUCGAUAUCAUAUUAAUCUUU	0.128 µM
Ic_S2_P5E.1_K5.1_C5.1_H5.1_A5.1_[A7C]_F5.1_[T9G]_[A10G]_T5.1 (ssRNA) RNA: UUUGAUUAAUAUGAUAUCGUUCUUUCUUGUAUUCUGGUUCUUUCUCGAUAUCAUAUUAAUCUUU	0.0235 µM
Ic_S2_P5E.1_K5.1_C5.1_H5.1_A5.1_[T5A]_[T6C]_[A7G]_F5.1_[T8G]_[T9C]_[A10C]_T5.1 (ssRNA) RNA: UUUGAUUAAUAUGAUAUCGUUCUUUCUUGUAACGGCCUUCUUUCUCGAUAUCAUAUUAAUCUUU	> 2.3 µM

Reference: article PMC9352680, “A comprehensive thermodynamic model for RNA binding by the Saccharomyces cerevisiae Pumilio protein PUF4”
